Source: patent US20190308035A1, “A NON-INVASIVE METHOD FOR SELECTIVE NEURAL STIMULATION BY ULTRASOUND” (priority 2018, published 2019)
“Also recorded” adds a separate entry of the source. Bridge positions count the residues as written; N and C are the ends. Ends that are not written are not given here.

Assays:
[1] = target: T1, Piezo1 (Mus musculus, UniProt E2JF22); assay: Immunocytochemical staining of c-Fos, p-CaMKII and p-CREB in primary cortical neurons; type: cell-based; set-up: Expression of Piezo1 in CLU199 cells was confirmed through RT-PCR; host or cells: mHippoE-18 (CLU199) embryonic mouse hippocampal cell line; conditions: GsMTx-4 10 μM followed by 0.3 MPa ultrasound
Protocol: The expression of c-Fos, p-CaMKII and p-CREB was investigated by immunocytochemical staining in primary cortical neurons untreated, treated by ultrasound or treated with GsMTx-4 (10 μM) followed by ultrasound. Each stimulus contained 200 cycles, at 1 kHz RPF with 200 NTB of 500 kHz ultrasound at 0.3 MPa and the results are shown in FIG. 2I.
Primary cortical neurons from embryonic mice brains were harvested as described previously with slight modifications. Briefly, pregnant mice were sacrificed at E16.5-E17, and brains from the embryonic mice were collected. They were then dissected under a microscope to separate the cortex from the other brain mass. Cortical cells were dispersed and seeded into culture dishes or collagen-coated glass coverslips (4 μg/cm2). At DIV 10, the cells were used for further experiments.
(§1) CLU199 cells or primary cortical neurons at DIV 10 were treated with ultrasound at acoustic pressures of 0.1, 0.3 or 0.5 MPa for 20 minutes with 20 s interval inside a humified incubator, 37° C., 5% CO2. The ultrasonic stimulation system and treatment parameters are the same as those described in section 4. Yodal (Tocris Bioscience) was used as a Piezo1 agonist with a concentration of 1 μM, while GsMTx-4 (Abcam) was used as a Piezo1 blocker at a concentration of 10 μM. Yodal was added to culture media, followed by a 20-minute incubation or immediate ultrasound treatment. GsMTx-4 was added to culture media, allowed for 30 minutes incubation, and followed by a further 20-minute incubation or ultrasound treatment.
CLU199 cells and primary neurons at DIV 10, including treated with (+) or without (−) ultrasound, were fixed using 4% paraformaldehyde+PBS and permeabilized using 0.1% Triton X-100+PBS. […] The number of c-Fos+ cells were determined by counting the number of DAPI and c-Fos signals co-located with DAPI from 10 FOVs photographed per condition. Results were expressed as a percentage of c-Fos versus DAPI signals, and were subjected to a one-way ANOVA followed by a post-hoc Tukey test. […]

[2] = target: T1, Piezo1; assay: Western blot of p-CaMKII and p-CREB in CLU199 cells; type: cell-based; set-up: Expression of Piezo1 in CLU199 cells was confirmed through RT-PCR; host or cells: mHippoE-18 (CLU199) embryonic mouse hippocampal cell line
Protocol: To evaluate effects on cell signalling, the phosphorylated forms of the Calcium/calmodulin-dependent protein kinase type II (p-CaMKII), and the transcription factor CREB (p-CREB) (28), both crucial players in Ca2+ signalling were analysed.
0.3 MPa ultrasound was then used to treat CLU199 cells with or without Yodal, or the Piezo1 blocker GsMTx-4 [7].
SMARTpool ON-TARGETplus Piezo1 siRNA (L-061455-00-0005) and ON-TARGETplus Non-Targeting Pool (D-001810-10) siRNA were obtained from Dharmacon. Transfection complexes were prepared by incubating siRNA with Lipofectamine RNAiMAX (Invitrogen) in Opti-MEM for 5 minutes at room temperature. 300 μl of complexes added per 35 mm dish or collagen-coated coverslips (5 μg/cm2). 1.5×10^6 cells were added per dish in fully-supplemented DMEM such that the final siRNA concentration was 125 nM. Cells were incubated for 48 hours post-transfection, and then used for further experiments.
as §1
Cells were lysed with RIPA buffer (EMD Millipore), supplemented with 1× Halt™ Protease and Phosphatase Inhibitor Cocktail (Thermo Fisher Scientific) on ice, centrifuged to clear the lysate, and protein concentrations measured using the Bio-Rad protein assay. 30 or 50 μg total protein per well was loaded on 10% SDS-PAGE gels, electrophoresed, and transferred to methanol-activated PVDF membranes. Membranes were blocked with 3% BSA in Tris-buffered-saline+0.05% Tween-20 (TBST). Membranes were incubated in primary antibody diluted in 5% BSA in TBST overnight, washed with TBST and incubated in secondary antibody solutions, diluted in blocking buffer, for 1 hour at room temperature. […]
Protein levels were quantified through image densitometry using ImageJ. Protein levels were expressed as a fold change compared to the untreated control, an average ±SEM of at least three independent experiments, except in FIG. 2E. Statistical significance was calculated using a two-tailed unpaired student's t-test and P values below 0.05 were considered significant.

[3] = system: CLU199 cells; assay: qPCR array of cAMP/calcium signalling genes in CLU199 cells; type: cell-based, mouse; conditions: array of 84 genes, Yodal 1 μM, vs untreated control
Protocol: Ultrasonic effects in CLU199 cells were explored using a qPCR array that probes 84 genes known to have Ca2+ responsive elements of various kinds.
A qRT-PCR array that explores genes that regulate calcium-related signalling (RT2 Pathway Finder) was used to evaluate how ultrasound treatment affects cellular signalling. Cells were also either pre-treated with GsMTx-4 (10 μM) before ultrasound or treated with Yodal (1 μM) by way of comparison. Results of the PCR were uploaded to Qiagen/SABiosciences online suite for data analysis, and clustergrams were generated using this software. Information about various subgroups of genes described here (FIG. 2J) were obtained from the product literature.
CLU199 cells seeded in 35 mm dishes were treated with ultrasound, Yodal or GsMTx-4 as appropriate. Total RNA was collected as described in section 7, and the concentration measured on NanoDrop™ One (Thermo Fisher Scientific). Samples with 260/280>1.8 and 260/230>2.0 were run on a 1% agarose gel containing bleach to check for RNA integrity (2). […] Ct values were calculated using the Quantstudio™ software, exported into a spreadsheet and uploaded to SABiosciences' online array data analysis software (accessible at: http://pcrdataanalysis.sabiosciences.com/per/arrayanalysis.php). […] Resulting clustergrams and a spreadsheet containing the analyzed results were obtained from this software. […]

[4] = target: T1, Piezo1; assay: Calcium imaging (Cal590) in 293T cells overexpressing Piezo1; type: cell-based; set-up: EGFP; expressed in transfected cells; host or cells: 293T cells (ATCC), pcDNA3.1 Piezo1-EGFP plasmid provided by Dr. Ardem Patapoutian; conditions: Yodal; 293T cells overexpressing Piezo1 vs control cells
[5] = GsMTx-4 10 μM incubation before 0.3 MPa ultrasound
[6] = Yodal 1 μM alone, vs untreated control

T1 sequence (E2JF22 whole entry): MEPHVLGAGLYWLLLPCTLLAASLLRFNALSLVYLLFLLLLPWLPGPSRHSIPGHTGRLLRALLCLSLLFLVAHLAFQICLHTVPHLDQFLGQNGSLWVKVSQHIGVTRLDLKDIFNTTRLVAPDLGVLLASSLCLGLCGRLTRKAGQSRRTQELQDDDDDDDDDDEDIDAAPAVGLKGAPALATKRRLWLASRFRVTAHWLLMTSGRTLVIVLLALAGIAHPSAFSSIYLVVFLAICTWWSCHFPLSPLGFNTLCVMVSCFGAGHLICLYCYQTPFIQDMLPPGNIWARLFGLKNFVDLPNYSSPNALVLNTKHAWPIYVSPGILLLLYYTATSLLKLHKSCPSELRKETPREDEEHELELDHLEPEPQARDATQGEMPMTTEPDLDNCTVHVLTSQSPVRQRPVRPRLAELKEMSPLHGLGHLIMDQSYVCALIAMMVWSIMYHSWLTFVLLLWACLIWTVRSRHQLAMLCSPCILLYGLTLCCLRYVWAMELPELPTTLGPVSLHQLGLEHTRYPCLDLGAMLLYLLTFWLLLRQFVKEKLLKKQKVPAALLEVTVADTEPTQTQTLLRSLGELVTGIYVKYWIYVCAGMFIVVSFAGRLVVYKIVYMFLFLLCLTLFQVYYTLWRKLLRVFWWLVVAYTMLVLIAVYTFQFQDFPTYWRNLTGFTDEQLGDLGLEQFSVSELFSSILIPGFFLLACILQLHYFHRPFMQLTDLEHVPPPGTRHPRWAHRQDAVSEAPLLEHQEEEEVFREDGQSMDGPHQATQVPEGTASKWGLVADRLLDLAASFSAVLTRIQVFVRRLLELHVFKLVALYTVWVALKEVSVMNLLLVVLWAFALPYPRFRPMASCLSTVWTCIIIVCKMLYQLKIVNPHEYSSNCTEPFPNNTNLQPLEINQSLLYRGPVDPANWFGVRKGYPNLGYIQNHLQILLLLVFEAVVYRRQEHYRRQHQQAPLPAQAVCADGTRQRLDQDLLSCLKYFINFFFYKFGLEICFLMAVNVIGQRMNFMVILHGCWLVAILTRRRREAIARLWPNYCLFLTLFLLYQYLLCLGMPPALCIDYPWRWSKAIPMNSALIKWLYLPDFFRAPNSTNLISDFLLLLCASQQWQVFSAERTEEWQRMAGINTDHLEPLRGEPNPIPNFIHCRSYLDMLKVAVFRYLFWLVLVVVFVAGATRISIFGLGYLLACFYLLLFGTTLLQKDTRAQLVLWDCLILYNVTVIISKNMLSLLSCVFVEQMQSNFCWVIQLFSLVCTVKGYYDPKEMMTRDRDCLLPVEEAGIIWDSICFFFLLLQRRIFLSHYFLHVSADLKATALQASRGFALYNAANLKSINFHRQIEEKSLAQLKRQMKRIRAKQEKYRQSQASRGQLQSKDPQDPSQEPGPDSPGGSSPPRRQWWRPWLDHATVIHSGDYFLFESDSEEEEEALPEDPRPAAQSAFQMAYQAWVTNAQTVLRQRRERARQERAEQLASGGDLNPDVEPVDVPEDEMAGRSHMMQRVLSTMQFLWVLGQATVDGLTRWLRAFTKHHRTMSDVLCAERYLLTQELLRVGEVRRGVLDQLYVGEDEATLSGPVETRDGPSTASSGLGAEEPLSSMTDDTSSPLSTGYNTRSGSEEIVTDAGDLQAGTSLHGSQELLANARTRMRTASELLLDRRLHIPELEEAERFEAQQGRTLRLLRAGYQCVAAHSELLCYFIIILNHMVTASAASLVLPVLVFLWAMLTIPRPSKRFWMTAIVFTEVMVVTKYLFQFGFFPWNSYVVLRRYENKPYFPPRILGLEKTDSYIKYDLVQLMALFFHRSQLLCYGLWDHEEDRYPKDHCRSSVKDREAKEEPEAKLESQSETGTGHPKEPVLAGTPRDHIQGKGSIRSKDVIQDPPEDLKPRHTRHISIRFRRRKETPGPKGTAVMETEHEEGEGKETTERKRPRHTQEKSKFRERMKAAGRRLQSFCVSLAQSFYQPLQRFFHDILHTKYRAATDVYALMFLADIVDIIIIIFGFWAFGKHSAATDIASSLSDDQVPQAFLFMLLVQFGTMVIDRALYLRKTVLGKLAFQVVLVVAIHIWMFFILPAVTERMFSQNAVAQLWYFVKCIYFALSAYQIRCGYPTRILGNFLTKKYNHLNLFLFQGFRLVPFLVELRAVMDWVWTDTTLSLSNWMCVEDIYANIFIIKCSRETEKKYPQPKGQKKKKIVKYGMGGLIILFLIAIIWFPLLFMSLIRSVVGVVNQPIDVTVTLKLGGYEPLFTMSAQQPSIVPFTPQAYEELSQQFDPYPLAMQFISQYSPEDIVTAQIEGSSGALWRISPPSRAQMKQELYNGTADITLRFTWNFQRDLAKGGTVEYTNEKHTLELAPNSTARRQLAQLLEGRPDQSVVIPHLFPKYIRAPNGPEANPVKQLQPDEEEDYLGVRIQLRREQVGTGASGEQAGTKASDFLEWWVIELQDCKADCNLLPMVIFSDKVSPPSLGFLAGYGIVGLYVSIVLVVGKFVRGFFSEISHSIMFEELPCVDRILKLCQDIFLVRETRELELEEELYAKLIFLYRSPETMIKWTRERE

| p-CREB level [2, 6] | p-CaMKII level [2, 6] | Compound | level of p-CREB [1] | level of p-CaMKII [1] | ultrasound-induced c-Fos expression in the nuclei [1] | p-CREB level after ultrasound [2, 5] | p-CaMKII level after ultrasound [2, 5] | number of genes co-downregulated by ultrasound and Yodal [3] | number of genes co-upregulated by ultrasound and Yodal [3] | calcium influx [4] |
| --- | --- | --- | --- | --- | --- | --- | --- | --- | --- | --- |
|  |  | GsMTx-4: Piezo1-specific blocker (Abcam), used at 10 μM (GCLEFWWKCNPNDDKCCRPKLKCSKLFKLCNFSF-NH2; disulfide 16-30, 2-17, 9-23; ends not checked) | affected | affected | inhibited this effect | reduced to levels comparable to those in the untreated control; also recorded: inhibits this effect | reduced to levels comparable to those in the untreated control; also recorded: inhibits this effect |  |  |  |
| increased; also recorded: upregulate | increased; also recorded: upregulate | Clc1cccc(Cl)c1CSc1nnc(-c2cnccn2)s1 [Yodal] |  |  |  |  |  | 23 | 43 | Significant Ca2+ increase; also recorded: significantly higher calcium influx |
